We go through 1 molecule from patent publication US20240132589A1 (ONCORESPONSE, published 2024).

As usually defined, the EC50 is the concentration giving half of the maximal effect. In general, IC50 refers to the midpoint of a concentration-inhibition curve. Read a high IC50 as lower potency.

For experiment [1], the target named is T1, Recombinant human LILRB2 protein (ELISA antigen) (human, UniProt Q8N423 22-460).
T1 construct: also called LILRB2-His; recombinant LILRB2
The experiment in a line: ELISA, immobilized LILRB2-His; conditioned media of transient transfections. The protocol:
To confirm binding to human and cynomolgus LILRB2, antibodies in supernatants were evaluated for binding by enzyme-linked immunosorbent assay (ELISA). Recombinant LILRB2 proteins (human: SEQ ID NO: 48; cynomolgus) were diluted in PBS to 2 μg/mL and added to 384-well high-binding ELISA plates (Greiner Bio-One Microlon™) at 25 μL/well and incubated at 4° C. overnight. The plates were washed three times with Wash Buffer (0.05% Tween® 20 in PBS), using a microplate washer and then blocked with 90 μL/well of ELISA Blocking Buffer A (1% BSA in PBS) for 1 hour at room temperature (RT). After blocking, 25 μL/well of LILRB2 antibodies or isotype control were added to the plates and incubated for 1 hour at RT. After primary antibody binding, plates were washed three times with Wash Buffer using a microplate washer. Secondary detection antibody (HRP-goat anti-rabbit Fab fragment) was diluted to 1:3000 in assay diluent (1% BSA in PBS) and 25 μL/well was added to plates and incubated at RT protected from light for 1 hour. Following incubation, plates were washed four times with Wash Buffer, using a microplate washer. After removal of the final wash, 25 μL/well of 1-Step™ Ultra TMB-ELISA Substrate Solution (Thermo Fisher, No. 34028) was added and plates were incubated for 5-10 min at RT, protected from light. After development, the reaction was stopped by addition of 25 μL/well of 0.3 M HCl, and plates were read using an EnVision (Perkin Elmer) microplate reader at 450 nm. EC₅₀ values were calculated based on log concentration of the primary antibodies at optical density at 450 nm.
Twenty-five IgG4 variants were expressed in mammalian cell culture as a combinatorial library of the five light and five heavy chains. In addition, B2A-IgG4 was included as a transfection control. The conditioned media from these transient transfections were assayed for human IgG concentration. A plate-based ELISA (see Example 2) was performed in which LILRB2-His was immobilized, and binding of humanized mAb variants was detected via an anti-human IgG4 HRP-labeled secondary antibody. The parental rabbit/human chimera clone transfection served as the benchmark EC₅₀ positive control.

Experiment [2] addresses T2, Human LILRB2 on stably transduced HEK293T cells (human, UniProt Q8N423 22-597).
T2 construct: Lentiviral transduction (G&P Biosciences LTV2992); also called HEK293T-LILRB2; LILRB2-expressing HEK293T cells
In words: flow cytometry, HEK293T cells stably expressing human LILRB2. The protocol: To confirm binding of LILRB2 antibodies, flow cytometry binding assays were performed using HEK293T cells stably expressing human LILRB2 (Example 3). […] The B2A-IgG1 and B2A-IgG4 chimeras bound the LILRB2-expressing HEK293T cells, with equivalent EC₅₀ values of 0.21 nM and 0.30 nM respectively.
Select humanized variant antibodies were purified and tested for their ability to bind human LILRB2 by ELISA, using the method described in Example 2, and binding to HEK293T cells expressing human LILRB2, using the method described in Example 4. Representative data are shown for IgG4 variants in Table 6.
(In general: Flow cytometry measures light scatter and fluorescence of single cells or particles in a stream.)

Experiment [3] deals with T3, LILRB2-Fc protein (human, UniProt Q8N423 22-460, limits assumed).
T3 construct: also called human LILRB2-Fc; not shown: Fc part
T3 sequence (Q8N423 22-460 limits assumed): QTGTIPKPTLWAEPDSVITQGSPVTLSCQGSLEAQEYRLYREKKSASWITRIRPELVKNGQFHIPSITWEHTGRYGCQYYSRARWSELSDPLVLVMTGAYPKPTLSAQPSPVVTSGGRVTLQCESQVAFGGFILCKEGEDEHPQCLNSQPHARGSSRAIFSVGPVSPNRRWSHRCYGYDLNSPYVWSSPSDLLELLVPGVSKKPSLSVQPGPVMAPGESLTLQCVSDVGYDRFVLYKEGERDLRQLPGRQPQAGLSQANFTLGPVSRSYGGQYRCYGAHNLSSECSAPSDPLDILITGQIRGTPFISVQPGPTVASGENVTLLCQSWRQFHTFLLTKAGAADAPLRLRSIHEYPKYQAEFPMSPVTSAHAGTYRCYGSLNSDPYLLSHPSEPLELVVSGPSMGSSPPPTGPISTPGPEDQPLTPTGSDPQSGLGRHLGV
The experiment in a line: blocking ELISA: LILRB2-Fc pre-incubated with antibody titration, binding to coated monomer HLA-G. The protocol: Tumor-associated HLA-G is an HLA Class I ligand for LILRB2. Binding of HLA-G to LILRB2 induces an immune suppressive signal in LILRB2 expressing myeloid cells. To determine if the anti-LILRB2 antibodies block the HLA-G-LILRB2 interaction and prevent the induction of an inhibitory signal, blocking ELISA assays in a dose titration were performed. 384-well plates were coated with monomer HLA-G (Fred Hutchinson Cancer Research Center, No. bHLA-G) at a concentration of 5 μg/mL, diluted in PBS, then plates were incubated at RT for 1 hour. Plates were rinsed with Wash Buffer three times, then blocked with Blocking Buffer A for 30 minutes at RT. During blocking incubation step, LILRB2-Fc protein and antibody titrations were prepared in Blocking Buffer A. LILRB2-Fc protein was then incubated with antibody titrations for 30 minutes at RT to allow for binding prior to addition onto plate. Plates were rinsed three times with Wash Buffer, then 25 μL of protein/antibody mixture was added per well and incubated for 1 hour at RT. Following antibody incubation, plates were washed three times with Wash Buffer. Anti-human IgG Fc-HRP secondary antibody was diluted and added at 25 μL/well. Plates were incubated in the dark for 1 hour at RT. Following secondary antibody incubation, plates were washed four times with Wash Buffer. […] Absorbance was read at 450 nm using the Envision. […]

T2 sequence (Q8N423 other isoform, or with tags, fused parts or gaps limits assumed): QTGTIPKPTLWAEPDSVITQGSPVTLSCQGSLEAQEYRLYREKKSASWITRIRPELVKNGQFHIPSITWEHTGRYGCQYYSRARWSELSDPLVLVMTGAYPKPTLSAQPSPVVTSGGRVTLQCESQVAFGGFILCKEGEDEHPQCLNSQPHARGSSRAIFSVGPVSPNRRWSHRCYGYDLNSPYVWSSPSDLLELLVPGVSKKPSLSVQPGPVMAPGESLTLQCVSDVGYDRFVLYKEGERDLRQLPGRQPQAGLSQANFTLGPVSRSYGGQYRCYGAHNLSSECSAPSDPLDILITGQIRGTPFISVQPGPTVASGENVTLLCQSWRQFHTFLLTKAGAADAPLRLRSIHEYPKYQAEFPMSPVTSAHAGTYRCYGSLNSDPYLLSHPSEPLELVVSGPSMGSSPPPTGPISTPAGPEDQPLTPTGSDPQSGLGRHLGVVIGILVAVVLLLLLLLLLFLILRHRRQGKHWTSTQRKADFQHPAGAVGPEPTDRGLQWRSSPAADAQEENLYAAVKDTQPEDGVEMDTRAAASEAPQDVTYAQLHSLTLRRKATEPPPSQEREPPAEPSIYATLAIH
T1 sequence (Q8N423 other isoform, or with tags, fused parts or gaps limits assumed): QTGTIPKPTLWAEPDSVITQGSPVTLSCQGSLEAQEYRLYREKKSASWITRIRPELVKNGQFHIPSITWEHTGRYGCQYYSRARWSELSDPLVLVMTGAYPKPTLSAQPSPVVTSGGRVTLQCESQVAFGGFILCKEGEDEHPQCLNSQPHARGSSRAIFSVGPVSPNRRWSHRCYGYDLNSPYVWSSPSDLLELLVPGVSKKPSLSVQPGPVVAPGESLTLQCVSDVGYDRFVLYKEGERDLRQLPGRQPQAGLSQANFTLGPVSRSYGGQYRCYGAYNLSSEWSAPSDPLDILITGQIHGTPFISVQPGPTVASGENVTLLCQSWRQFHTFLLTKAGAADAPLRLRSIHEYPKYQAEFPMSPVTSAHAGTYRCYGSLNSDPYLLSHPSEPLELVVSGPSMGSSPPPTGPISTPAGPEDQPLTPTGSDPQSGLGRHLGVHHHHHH

B1: B2A-IgG4 (antibody)
heavy: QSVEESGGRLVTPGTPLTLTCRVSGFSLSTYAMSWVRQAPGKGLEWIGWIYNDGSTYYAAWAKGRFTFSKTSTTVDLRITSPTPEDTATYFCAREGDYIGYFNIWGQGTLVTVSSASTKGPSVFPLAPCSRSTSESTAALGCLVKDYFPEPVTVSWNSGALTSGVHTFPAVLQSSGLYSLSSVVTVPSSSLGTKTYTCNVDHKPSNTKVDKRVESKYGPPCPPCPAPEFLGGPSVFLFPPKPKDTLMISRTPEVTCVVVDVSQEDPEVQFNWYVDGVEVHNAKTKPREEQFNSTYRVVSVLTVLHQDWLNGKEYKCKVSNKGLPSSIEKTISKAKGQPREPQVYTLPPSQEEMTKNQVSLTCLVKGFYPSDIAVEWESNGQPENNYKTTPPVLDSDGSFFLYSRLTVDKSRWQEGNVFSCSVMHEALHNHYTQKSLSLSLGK
light: DVVMTQTPSSVSAALGGTVTIKCQASQSIGSNLAWYQLKPGQRPKLLIYAAATLASGGSSRFKGSGSGTDFTLTISDLECADAATYYCQSYVSGSSDVAFGGGTEVVVKRTVAAPSVFIFPPSDEQLKSGTASVVCLLNNFYPREAKVQWKVDNALQSGNSQESVTEQDSKDSTYSLSSTLTLSKADYEKHKVYACEVTHQGLSSPVTKSFNRGEC
notes: Rabbit variable regions on human IgG4 / kappa constant regions; also called B2A-IgG4 chimera; Parent B2A-IgG4
With B1, the results for the EC50 in experiment [1] and in experiment [2] were 2.74 ng/mL and 0.34 ng/mL, respectively. For the same molecule, the “BMAX [gMFI]” value in experiment [2] turned out to be 12100 gMFI. This molecule also showed an IC50 in experiment [3] of 66 ng/mL.
